Assay results taken from article PMC4316792, “The dehydrogenase region of the NADPH oxidase component Nox2 acts as a protein disulfide isomerase (PDI) resembling PDIA3 with a role in the binding of the activator protein p67^phox” (Frontiers in Chemistry, 2015).

B1: p67^phox(1–212) [not stated] / Nox2 peptide 24 (357–371) with an intramolecular disulfide bond between C369 and C371 [modified: biotin on the N-terminus; C-terminal amide; intramolecular disulfide bond between C369 and C371; biotin on the … (parent complex)
chain 1: MSLVEAISLWNEGVLAADKKDWKGALDAFSAVQDPHSRICFNIGCMYTILKNMTEAEKAFTRSINRDKHLAVAYFQRGMLYYQTEKYDLAIKDLKEALIQLRGNQLIDYKILGLQFKLFACEVLYNIAFMYAKKEEWKKAEEQLALATSMKSEPRHSKIDKAMECVWKQKLYEPVVIPVGKLFRPNERQVAQLAKKDYLGKATVVASVVDQD
chain 2: SGSGIVGDWTEGLFNACGC

Variants of: B1
Test: peptide-protein binding assay (surface-attached biotinylated peptide, protein in solution, kinetic TMB oxidation read-out); 10 min kinetic experiment; read off a plot

For chain 1 C40S, chain 1 C45S, chain 1 C121S, chain 1 C165S, which response is on record?
The response was ~12 Absorbance (650 nm) x 1000/min.
